Experiments:
Format in all cases: cell-based
[1] = tested on: MC3T3-E1 cells and RAW264.7 cells co-culture; assay: Differentiation in 3D co-culture mass in biogel (ALP and ACP assay, ALP and TRAP staining)
Procedure: In detail, after dissolving 0.5% agarose in 300 mM CaCl2 solution, the Phenol Red solution was added in an amount of 5 mg/L to produce a casting gel solution. Then, after introducing 5-5.5 ml of the casting gel solution into a casting tray, a three-dimensional semi-spherical casting mold was inserted in the casting tray, and after completely solidifying the casting gel solution, the casting mold was carefully removed to produce a three-dimensional semi-spherical casting gel mold. The biogel, 1×10^5 cells/ml of osteoblast progenitor cells MC3T3-E1, and 5×10^4 cells/ml of osteoclast progenitor cells RAW264.7, were introduced into the casting gel mold and subjected to gelation to yield a three-dimensional co-culture mass. Then, the co-culture mass was cultured in the following media: media treated only with an osteoblast differentiation induction factor (+3F); media only treated with an osteoclast differentiation induction factor (+R); and media treated with both osteoblast differentiation induction factor and osteoclast differentiation induction factor (+3F+R). Then, osteoblast differentiation profiles were characterized through ALP expression levels.
9-2. Creating the bone resorption environment through co-culture of osteoblasts and osteoclasts Under the same conditions as shown in Example 9-1, osteoclast differentiation profiles were characterized by […].

RAW264.7 cells = assay: Differentiation of osteoclast progenitor culture mass in biogel (ACP/ALP assay, TRAP staining); conditions: RAW264.7 in biogel, 100 ng/ml Rankl, compared to control group (GM)
Procedure: 8-2. Culturing of Osteoclasts Osteoclast progenitor cells RAW264.7 were mixed with the biogel prepared in Example 6, in amounts of 5×10^5 cells/ml, 7×10^5 cells/ml, 1×10^6 cells/ml, and 3×10^6 cells/ml, and 100 μL of each of the resulting mixture liquids was gelled using a casting gel, to consequently yield three-dimensional culture mass, each containing 5×10^4 cells, 7×10^4 cells, 1×10^5 cells, 3×10^5 cells, and […]. Then, the three-dimensional culture mass were three-dimensionally cultured for 7 days in osteoclast media, which were formed by adding 100 ng/ml of Rankl to growth media containing α-MEM (Welgene, Korea) supplemented with 10% fetal bovine serum (FBS) (Gibco, USA), 100 U/ml of penicillin (Welgene, Korea), and […] of streptomycin (Welgene, Korea). Then, using ACP assay kit (Abcam, ab83367) and TRAP staining kit (Sigma, 181A), differences in the expression level of osteoclast differentiation factor were examined at different cell numbers. […]
(§1) Subsequently, on day 3 and day 7 of culturing, the MC3T3-E1 cells were measured for the osteoclast differentiation marker ACP, and the RAW264.7 cells were measured for the osteoblast differentiation marker ALP, to determine the influence of their respective differentiation markers on each other.

MC3T3-E1 cells = assay: Differentiation of osteoblast progenitor culture mass in biogel (ALP/ACP assay, ALP staining); conditions: day 3 and day 7
Procedure: Osteoblasts progenitor cells, MC3TC-E1 were mixed with the biogel prepared in Example 6, in amounts of […], and 100 μL of each of the resulting mixture solution was gelled using a casting gel, to consequently yield three-dimensional culture mass, each containing 7×10^3 and 1×10^5 cells. Then, the three-dimensional culture mass were three-dimensionally cultured for 7 days in osteoblast media, which were formed by adding 10 mM of β-glycerophosphate (Sigma Aldrich, USA), 50 μg/ml of ascorbic acid (Sigma Aldrich, USA), and 10 nM of dexamethasone (Sigma Aldrich, USA) to growth media supplemented with α-MEM (Welgene, Korea) supplemented with 10% fetal bovine serum (FBS) (Gibco, USA), 100 U/ml of penicillin (Welgene, Korea), and […] of streptomycin (Welgene, Korea). Thereafter, on day 3 and day 7 of culturing, differences in the expression level of ALP protein, which is an early osteoblast differentiation factor, were examined at different cell densities of culture mass, using ALP assay kit (Abcam, ab83369) and ALP staining kit (Sigma, P5869). […]
as §1

B1: Rankl (protein, UniProt O14788 140-317, looked up)
Tumor necrosis factor ligand …: IRAEKAMVDGSWLDLAKRSKLEAQPFAHLTINATDIPSGSHKVSLSSWYHDRGWAKISNMTFSNGKLIVNQDGFYYLYANICFRHHETSGDLATEYLQLMVYVTKTSIKIPSSHTLMKGGSTKYWSGNSEFHFYSINVGGFFKLRSGEEISIEVSNPSLLDPDQDATYFGAFKVRDID
notes: 100 ng/ml of Rankl added to growth media
ALP expression (osteoblast differentiation) ([1]; combined treatment compared with osteoblast factor only): trace amount | ACP expression (osteoclast differentiation) ([1]; day 3 and day 7, combined treatment compared with osteoclast factor only): increased | expression of osteoclast differentiation factor ACP (RAW264.7 cells): increased | expression of osteoblast differentiation marker ALP (MC3T3-E1 cells): little expression | expression of osteoclast differentiation marker ACP (MC3T3-E1 cells): little expression

— patent US12252711B2, “Osteoporosis model comprising calcium phosphate hydrogel composition and use thereof” (MEDIFAB CO., LTD., priority 2019, dated 2025)
